Results published in the DeepSol protein solubility set.

Assay: soluble on expression in E. coli; label from the status in PepcDB or PDB records

Sequence | soluble on expression in E. coli
MKCGLEIHVQLDTRSKLFCRCPTDYQEAPPNTNICPVCLNQPGAKPYPPNRSALEGALKIALMLDCRINPEITYFMRKHYNYPDLPSGYQRTSIPVGLEGELNGVRIREVHIEEDPGQYKPDQGTVDFNRSGIPLIEIVTEPDMTSPEEARNFLRELIRVLEYSGCARGEGTMRADVNISLEGGKRVEIKNINSIKGAYKALKFEMIRQKNLLKRGVEVKQETRAFLESQMITVSMRLKEEAEDYRYIPDPDLPPMKFTDEVVEGLRERIPEAPHLKVKRFMEEYGLREEDARVLTSELELADAFEEVAGSIDPEFAALWMRDELKRVLYYNKISFAESMITPGDIIELLAMIRKKEITSKAAKKIIEEMPLNKKGPREIATEMGLIGIIDESEVIRAVEQAIRENPGAVEDYHAGKEAAINFLVGQVMRMTRGKAEPERTVELIKERI | soluble
MKCSKCQAEAIYFAKYNGLYLCREHFNDMIEKRVKSEIRNQVDLKKPMVRISVAISGGKDSSVTLYLLHKILSKRRNVELTAFTVDEGISGYRPAGLESAIKLTKMLGVDHSIIRFQDSFGMTLDSIVGADASRIPCSYCGPLRRKLINEMAERQNADYVALGLNLDDYSQSILMNVAKGDYDRLLRMSPQKEAKDGLVRRIAPLRSVLEKEVVLYAVINGIPFDSSWCPYYSRAQRNIFREVVNTLSEYNPSTKFSILKFFERARSDVQRNDKALGRCRICGAPTENDVCSACAAMESLRNERKASESELHAR | not soluble
MKDLIKVQQKLIPDLIDKMYRRFYILSTISQNQPVGRRSLSEHMDMTERVLRSETDMLKKQELIRVKPTGMEITNEGTEVLAQLGEYFNVYSDDHKLASAIKDKFHIKDVHVIPGDSDSNRTVKREMGQQAGQLLEGILYEDAIVSVTGGSTMACVSESIHLLPFNVFFVPARGGLGENVVYQANTIASSMAQQAGGYYTTLYVPDNVSESTYDTLMLEPSVMHTLDKIKQANITIHGIGDALKMAHRRQSSQNVIDNLQHHQAVGEAFGYYFDAQGQIVHKVKTIGLQLEDLENKDFIFAVAGGQSKGEAIKAYLSIAPENTVLITDEAAAKVILQ | not soluble
MKDSALTLKRVRIGKFSESMVEERPTLNLFEKVEFNPVPTALVDQLPTEPLVEATLLEKEAITFVDTYATSEAHDQIATFVLEQSMETEVVEKEAIETAIVAPAPDLVEEKAVLVEEVLVEPTATEAVTTEENQVSTTSVTKIKTKRSNTKKVTSETLVASKSVKTKKLITPNRVSSGNVNITLWQVDKKSTNLTKTKTDLFGKKHQFKGPQLISYKK | soluble
MKDVSKNQEENISDTALTNELIHLLGHSRHDWMNKLQLIKGNLSLQKYDRVFEMIEEMVIDAKHESKLSNLKTPHLAFDFLTFNWKTHYMTLEYEVLGEIKDLSAYDQKLAKLMRKLFHLFDQAVSRESENHLTVSLQTDHPDRQLILYLDFHGAFADPSAFDDIRQNGYEDVDIMRFEITSHECLIEIGLD | soluble
MKEDWPEPVKEYNTGQVLFDRLELTRTNEEENLAVWDMIAWYGGDYHRAVFKSEGENVQDDGEPTDLERAELLYGYLVSPFWSFQAGIGTRGTLSSDASMENYAVVSFMGLAPYWFEMDNSLMVNEEGDVQFVSETEYEWQLTQTSYLQPRIELTANLTDSDKYERQSGLSNLRVGLRYRHEISREFAPYIGVYWNGALGNTADEMKRMGKDTTETGVVLGARVWFLEHHHHHH | not soluble
MKEKGGDSLKYCYQCGLCDSVCPWNRVRQFSMRKIVRQGTFGLTEIEQEDIWRCSTCGTCPSRCPRGVNQIEAGVAMRRIGAEYDVYPGHVGTIRNVVASLTSEGNSLEHHHHHH | not soluble
MKEKIPFYNEKEFHDMVKKTKKGTFSGWYIINKNNNSVEFSGSFNRQFKLNKPVIPVNTEYVTRKEFNEYKDSNDQRLTKIETELKSQGQRIQVVEDKVDRLTEVVMVQSQQIKTQGEAMNARMDRFESLVLKSLESIGNTLTDFGKRLDVIETRLDKIDPPKLEHHHHHH | not soluble
MKEKVIVIGGGLAGSEAAWRLANEGHRVILYEMRPKKMTPAHKTGNLAELVCSNTLGGLELTTGAGLLKAEMQKLGSLVIEAAKVARVPAGGALGVDRKIFSEYITEKIESHPNITLIREEVKEIPEDEVVVIATGPLTSDALSEKIKELVGYDTLYFYDAIAPIVEAESVDFSKGFWGSRYGKGGDDYFNCVLTEEEYKKFYEELLKAEKVKPKDFEKAVHFEGCLPIEEMAERGYKTLLFGPMKPVGLVDPRTGKEPFAVVQLRKENKEGTLLSLVGFQTKLTYKEQKRVFRLIPCLRNAVFVRLGSMHRNTFIQSNKVLTHYLNLKKKENIFFAGQITGVEGYVASSATGILAGINAGRLARGEKPLKAPTETMLGALVNYIVTKEGELQPMNPVFGLLPPLEKKVRDKKKRKELMAKRALETMEKWIKENNLVPEGLVKVC | soluble
MKELVVVAIGGNSIIKDNASQSIEHQAEAVKAVADTVLEMLASDYDIVLTHGNGPQVGLDLRRAEIAHKREGLPLTPLANCVADTQGGIGYLIQQALNNRLARHGEKKAVTVVTQVEVDKNDPGFAHPTKPIGAFFSDSQRDELQKANPDWCFVEDAGRGYRRVVASPEPKRIVEAPAIKALIQQGFVVIGAGGGGIPVVRTDAGDYQSVDAVIDKDLSTALLAREIHADILVITTGVEKVCIHFGKPQQQALDRVDIATMTRYMQEGHFPPGSMLPKIIASLTFLEQGGKEVIITTPECLPAALRGETGTHIIKT | soluble
MKENIEKLFQAIAQKNPIHSKYLKKIEFSQEDEEEFDKLISYYIQDGISIKEQCDCYLLILNDTLEETKFFIENGAYRYSSFDEVKDKVYFNESYMKQYMIGLALSSFVWIAHIKVRKYFSQYLQNFTPKTTYFEIGPGHGEYFARAVKSGKFSAFYGLDISPTSCELTQKMVKQQVGGLITKCDFLCQDFFTYDFDKKADLIVIGEVLEHVEKPLEFLKRSKELLSDGGEIFATIPINAPAIDHIYLFSHPDEVKDLIEKSGLKFKAYECFMANDYSLEKALKFKNAITMAVVLNALEHHHHHH | soluble
MKETRDLETLSVNAIRFLAIDAVEKARSGHPGMPMGMAPLAYLLFREVMRHNPLDPDWPDRDRFVLSAGHGSMLLYAVLHLTGYDLPLEELKSFRQWGSKTPGHPERGHTPGVEVTTGPLGQGISTAVGLALAERKLAAEFNRPGHVVVDHYTYVLASDGDLMEGVSGEAASLAGHWGLSKLIVFWDDNRISIDGPTDLAFTEDVLARYRAYGWQTLRVEDVNDLEALRKAIKLAKLDERPTLIAVRSHIGFGSPKQDSAKAHGEPLGPEAVEATRRNLGWPYPPFVVPEEVYRHMDMREKGRAWQEAWEKALEAYARAYPDLHQELMRRLRGELPPLPEEPPSFDKPIATRAASGRALNLLAPRLPELLGGSADLTPSNNTKAEGMEDFSRANPLGRYLHFGVREHAMGAILNGLNLHGGYRAYGGTFLVFSDYMRPAIRLAALMGVPTVFVFTHDSIALGEDGPTHQPVEHLMSLRAMPNLFVIRPADAYETFYAWLVALRRKEGPTALVLTRQAVPLLSPEKARGLLRGGYVLEDVEEPQGVLVATGSEVHLALRAQALLREKGVRVRVVSLPSFELFAAQPEAYRKEVLPPGLPVVAVEAGASLGWERYAHKVVALDRFGASAPYPEVYERLGFTPERVAEAFLSLV | soluble
MKEVLRVRTTKHTSIVNITQQVDQVVKKSGVREGICVVYTPHTTACVFVNEGADPDVVRDIVYSLEKLIPWNDPSYAHMEGNSAAHIRSAIIGNSRVIPIIDGELALGTWESIFLADFDGPRERKVIVVVLGEKLEHHHHHH | not soluble
MKFAIFVNTTREKALELARELTAWLDARSIDYVFDPQSAKALGCGKWEEKADLSQHCDAFVALGGDGTLLLASHYSRSKPVVGINVGDLGFLTEFSPDEMWVAMDHLVSGNYSIHTRSQLEATLESGESLTSLNDVIFEKGSAARRLPAFTILLDDEMLGSYRADGIIIATSTGSTAYSMSAGGPIIAPKSNVFVITPICPHMLTVRPIVISDDKTIKISVDSQSGEFPLKMDGIQKKLLAPGEVVTVKKSPHHINLVANEKRNYCEILRKKLLWSHEHPTGELEHHHHHH | not soluble
MKFALQINEGPYQHQASDSAYQFAKAALEKGHEIFRVFFYHDGVNNSTRLTTPPQDDRHIVNRWAELAEQYELDMVVCVAAAQRRGIVDEGEASRNGKDATNIHPKFRISGLGQLVEAAIQADRLVVFGD | soluble
MKFAVVVFPGSNCDVDMYHAIADELGEEVEYVWHDEDDLDRFDAILLPGGFSYGDYLRSGAIARFSKVMAAVKKAAEAGKPVLGVCNGFQILLEAGLLPGAMRRNQGLKFICRPVQLTVENHETIFTSAYEKGEVITIPIAHGEGNYYCDEQTLERLVENRQIVFRYHGENPNGSLADIAGIVNERGNVLGMMPHPERAVDALLGSADGLKLFRSIVNYWRETHVVTA | not soluble
MKFGWIKTTGNDLEERMESVKDALESSIPGIIAEKEEISSVRELGNIKIVSDNLDADVVLINKGEDLEILKSAKLSGKETGVYVVINTKEDEVYATDVSKLDFVDYVVLEGSDWTIIPLENIIADLFSEEIKIVSVVTNVKDAEAAYEILEKGVDGVVLIPKDINEVKDFSKLIERMNSESVKLDYATVTKIEPVGSGDRVCIDTCSMMEMGEGMLIGSYSRGMFLVHSETVENPYVATRPFRVNAGPVHAYILCPENKTKYLSDLKAGDKVLVVNKNGETREAIIGRVKIEKRPLFLVEAEYNGENLRTILQNAETIRLVGEDGKPVSVVDLKVGTKVLIKPDENARHFGMAIKETIIEKLEHHHHHH | soluble
MKFQWIGVLVFIGIVNCLISSQKLTVKENEERLKSCGNTFLPIPSINQTGKGFGFFNDKTYTYNSKSGWLLLAGHKNRSTRVYATAFPISEYHILISSRVMLTAEHKWIMNGKPFDKNNCSGGRHLDVPRDVLDNILFWYGKKPKKADISKARMFFACDNQDLKAYPVLIELNKTSKRPWAFNGVPCLADETTSSKLGDVVHFYGYSDYDLLHHKLLIKAVKDGGICTETYYTEEVGGPLVQNVSGKATVIGLKAPGSRENCELFYDLSKLQKEICDYSGVCGYEKPTLTTEPTPVTTEKSTVSTTISTSLETTIMQASSASPTSIKPSTTTEPSPLQASSKPATEPLLRPESTRRASSSASSKPEVQTTIPTEIRTSSLPTPFLKTSTTVTTTTPEPATVDYGDDHDMIGLDDEYGDESNKGVGKIDRIVGFFVLLLVIE | not soluble
MKFTWYGQSCFLIETSRNKKILLDPFNNSIGYPTFKGEADIITVSHHHFDHDFIDCVTNSPKVIDKPGDYKIDDITIKGIPSFHDNVHGAARGENTIFLFNIDGFNVCHLGDIGYVLSDLEVKSLGNVDVLMIPVGGNFTIDGAEAGQLCKKINSNIILPMHYKTTFTILPLEGAEKFIMSMKNAERLQSNVLTLDTKTNEKNQVKIFSIKLEHHHHHH | not soluble
MKGFGMFRFRRTFVPQIDMRNCGVAALASVAKYYGSDYSLAHLRELAKTNKEGTTALGLVEAAKKIGFETRAIKAEMSLFEMEDVPYPFIAHVNKDGKLQHYYVIYKSTKDYLIIGDPDPSVKVTKMTKERFEKEWTGVTLFMGPEPS | not soluble
MKGNALCTGEPVMTIETRGGGSEDIAVLPLDPTGNITRLFIRERCNDSSDPECKTGQWRLGSVDISRENTPASTRYAWRPGNNASEDDFEPLGMSLVPGNTPGEGTLFVIDIARPQSVRIWQLDISGGEITKATLATPADTQTGARLTAANSLQAVRNDDSRSFHLTITRFDEYGLLPFRPTPWPALVRINNGVIQPPPAQDFRNANGIIRPCAGCDLVIASYWERRLRFVSKENGEIGEYASAELPIRPDNLRLDGERILIAGQRRVDLTALNLLVSPHIPSPSGVYAIDTRSLGPDTVPTLLWEGGWKHGHSVATAVALPGNRLAIGQINTPGILIADCSPLEHHHHHH | not soluble
